Patent US20220332804A1 (CSL INNOVATION, published 2022)

How the values were obtained:
Assay in all cases: SPR, KD relative to WT C2;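 further: biacore SPR at 37 °C, anti-C2 mAbs captured on anti-human IgG chips with alanine or serine point mutants of C2 as analyte, KD from 1:1 fit compared with wild-type C2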
[1] = target: T1, human C2 H435A (human, UniProt P06681 21-752)
T1 sequence: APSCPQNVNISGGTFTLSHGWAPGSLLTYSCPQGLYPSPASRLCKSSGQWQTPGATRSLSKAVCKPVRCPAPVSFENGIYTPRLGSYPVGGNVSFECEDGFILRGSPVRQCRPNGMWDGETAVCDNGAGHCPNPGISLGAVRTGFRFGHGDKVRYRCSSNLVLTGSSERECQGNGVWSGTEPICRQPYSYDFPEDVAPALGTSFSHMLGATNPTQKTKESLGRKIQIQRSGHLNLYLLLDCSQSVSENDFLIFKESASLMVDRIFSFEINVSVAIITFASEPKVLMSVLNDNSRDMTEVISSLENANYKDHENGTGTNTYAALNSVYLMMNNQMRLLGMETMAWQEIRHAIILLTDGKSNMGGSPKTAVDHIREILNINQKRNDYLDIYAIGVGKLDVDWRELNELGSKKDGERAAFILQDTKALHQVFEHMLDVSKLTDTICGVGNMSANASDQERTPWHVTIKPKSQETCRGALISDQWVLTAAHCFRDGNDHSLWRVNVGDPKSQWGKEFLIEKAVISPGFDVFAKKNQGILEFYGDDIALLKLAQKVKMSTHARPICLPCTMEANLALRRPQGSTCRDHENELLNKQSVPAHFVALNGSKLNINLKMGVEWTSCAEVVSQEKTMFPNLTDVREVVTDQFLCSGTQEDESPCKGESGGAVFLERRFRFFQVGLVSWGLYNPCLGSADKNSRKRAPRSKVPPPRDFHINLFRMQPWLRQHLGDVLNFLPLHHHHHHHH

[2] = target: T2, human C2 L439A (human, UniProt P06681 21-752)
T2 sequence: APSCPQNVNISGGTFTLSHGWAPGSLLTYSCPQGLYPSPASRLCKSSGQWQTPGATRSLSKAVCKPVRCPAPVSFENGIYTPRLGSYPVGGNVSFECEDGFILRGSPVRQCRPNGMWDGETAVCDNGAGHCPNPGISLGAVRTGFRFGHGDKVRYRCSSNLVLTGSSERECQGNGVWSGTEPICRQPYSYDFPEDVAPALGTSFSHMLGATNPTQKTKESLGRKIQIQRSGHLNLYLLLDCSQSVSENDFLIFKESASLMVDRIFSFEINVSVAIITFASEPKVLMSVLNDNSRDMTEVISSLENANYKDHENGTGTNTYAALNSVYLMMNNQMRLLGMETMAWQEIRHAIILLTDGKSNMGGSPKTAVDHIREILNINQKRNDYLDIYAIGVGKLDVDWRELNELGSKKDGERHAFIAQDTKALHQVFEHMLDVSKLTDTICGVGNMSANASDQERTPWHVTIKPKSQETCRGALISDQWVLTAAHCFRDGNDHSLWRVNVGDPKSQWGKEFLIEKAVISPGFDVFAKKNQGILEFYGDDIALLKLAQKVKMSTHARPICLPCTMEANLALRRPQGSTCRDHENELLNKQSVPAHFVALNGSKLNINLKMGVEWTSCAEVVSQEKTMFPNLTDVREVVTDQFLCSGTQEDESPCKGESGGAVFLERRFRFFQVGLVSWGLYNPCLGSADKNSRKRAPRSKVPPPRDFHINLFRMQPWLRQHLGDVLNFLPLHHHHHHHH

[3] = target: T3, human C2 D404A (human, UniProt P06681 21-752)
T3 sequence: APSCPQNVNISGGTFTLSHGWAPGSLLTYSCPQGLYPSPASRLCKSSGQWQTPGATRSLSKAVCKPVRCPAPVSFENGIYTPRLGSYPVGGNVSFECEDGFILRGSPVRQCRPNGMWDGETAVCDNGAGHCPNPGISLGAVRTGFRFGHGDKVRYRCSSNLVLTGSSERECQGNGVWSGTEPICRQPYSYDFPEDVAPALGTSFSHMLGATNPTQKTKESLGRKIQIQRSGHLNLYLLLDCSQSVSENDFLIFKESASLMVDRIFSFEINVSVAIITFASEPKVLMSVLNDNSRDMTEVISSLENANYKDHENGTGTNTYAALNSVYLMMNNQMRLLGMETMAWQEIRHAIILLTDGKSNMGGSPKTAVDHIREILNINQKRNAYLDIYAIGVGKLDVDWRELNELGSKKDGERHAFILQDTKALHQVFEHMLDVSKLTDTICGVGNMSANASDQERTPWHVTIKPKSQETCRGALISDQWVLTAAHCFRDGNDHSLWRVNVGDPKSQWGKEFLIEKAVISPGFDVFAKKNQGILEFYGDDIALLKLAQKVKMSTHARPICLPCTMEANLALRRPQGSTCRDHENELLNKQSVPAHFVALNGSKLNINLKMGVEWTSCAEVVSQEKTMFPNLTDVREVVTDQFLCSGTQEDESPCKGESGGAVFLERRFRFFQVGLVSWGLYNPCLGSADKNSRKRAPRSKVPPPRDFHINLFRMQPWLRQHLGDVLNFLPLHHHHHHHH

[4] = target: T4, human C2 T317A (human, UniProt P06681 21-752)
T4 sequence: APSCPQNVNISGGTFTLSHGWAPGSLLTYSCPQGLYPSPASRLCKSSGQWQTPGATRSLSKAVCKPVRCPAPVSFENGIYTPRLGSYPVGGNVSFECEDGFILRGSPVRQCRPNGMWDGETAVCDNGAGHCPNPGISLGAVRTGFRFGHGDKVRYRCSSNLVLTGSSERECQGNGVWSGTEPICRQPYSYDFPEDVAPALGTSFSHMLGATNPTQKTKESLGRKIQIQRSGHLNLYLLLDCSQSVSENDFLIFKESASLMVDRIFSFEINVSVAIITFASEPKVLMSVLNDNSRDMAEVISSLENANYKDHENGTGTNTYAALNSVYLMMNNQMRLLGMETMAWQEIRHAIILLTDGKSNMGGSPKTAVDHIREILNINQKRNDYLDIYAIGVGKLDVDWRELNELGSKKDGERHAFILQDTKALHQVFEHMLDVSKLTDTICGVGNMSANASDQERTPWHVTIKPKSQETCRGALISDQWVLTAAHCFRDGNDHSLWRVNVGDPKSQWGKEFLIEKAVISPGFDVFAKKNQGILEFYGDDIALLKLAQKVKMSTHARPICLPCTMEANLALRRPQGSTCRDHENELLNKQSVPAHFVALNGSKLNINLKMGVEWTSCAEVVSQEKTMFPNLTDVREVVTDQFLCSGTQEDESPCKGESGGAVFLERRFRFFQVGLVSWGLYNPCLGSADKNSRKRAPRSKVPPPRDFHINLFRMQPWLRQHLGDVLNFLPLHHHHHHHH

B1: RF16-242 (antibody, human IgG4 S228P, lambda, V domains shown)
VH: EVQLLQSGAEVKKPGESLKISCKGSGYSFTSYWIGWVRQMPGKGLEWMGIIYPGDSDTRYSPSFQGQVTISADKSISTAYLQWSSLKASDTAMYYCARRGHYGDYFDYWGQGTLVTVSS
VL: SYELTQPPSVSVSPGQTARITCSGDALPKKYAYWYHQKSGQAPVLVIYEDRRRPSEIPERFSGSSSGTMATLTITGAQVEDEGVYFCYSRDRAGNQRVFGGGTQLTVLG
notes: pH-dependent anti-C2 antibody from a phage display library
- Fold diff [1]: 9 fold
- Fold diff [2]: 24 fold
- Fold diff [3]: 2 fold
- Fold diff [4]: 1 fold
